{"source": "patent US20200239543A1", "about": "(ALX ONCOLOGY, published 2020)", "binders": {"B1": {"name": "single-arm SIRP-α-Fc fusion, heterodimer of SEQ ID NO: 139 (an Fc variant) and SEQ ID NO: 142 (a SIRP-α-Fc fusion) (Fc fusion)", "chain 1": "EEELQIIQPDKSVLVAAGETATLRCTITSLFPVGPIQWFRGAGPGRELIYNQREGPFPRVTTVSDTTKRNNMDFSIRIGAITPADAGTYYCVKFRKGSPDDVEFKSGAGTELSVRAKPSDKTHTCPPCPAPEAAGAPSVFLFPPKPKDTLMISRTPEVTCVVVDVSHEDPEVKFNWYVDGVEVHNAKTKPREEQYASTYRVVSVLTVLHQDWLNGKEYKCKVSNKALPAPIEKTISKAKGQPREPQVYTLPPSREEMTKNQVSLWCLVKGFYPSDIAVEWESNGQPENNYKTTPPVLDSDGSFFLYSKLTVDKSRWQQGNVFSCSVMHEALHNHYTQKSLSLSPGK", "chain 2": "DKTHTCPPCPAPEAAGAPSVFLFPPKPKDTLMISRTPEVTCVVVDVSHEDPEVKFNWYVDGVEVHNAKTKPREEQYASTYRVVSVLTVLHQDWLNGKEYKCKVSNKALPAPIEKTISKAKGQPREPQVYTLPPSREEMTKNQVSLSCAVKGFYPSDIAVEWESNGQPENNYKTTPPVLDSDGSFFLVSKLTVDKSRWQQGNVFSCSVMHEALHNHYTQKSLSLSPGK", "notes": "knob and hole heterodimer"}, "B2": {"name": "single-arm SIRP-α-Fc fusion, heterodimer of SEQ ID NO: 139 (an Fc variant) and SEQ ID NO: 138 (a SIRP-α Fc fusion) (Fc fusion)", "chain 1": "B1 chain 1 with E47V, E54Q, V92I", "chain 2": "B1 chain 2", "notes": "knob and hole heterodimer"}}, "key": {"human CD47": {"molecular_target": "T1, human CD47 (human, UniProt Q08722 19-139)", "T1 construct": "extracellular domain; also called CD47 ECD", "T1 sequence (Q08722 19-139 limits assumed)": "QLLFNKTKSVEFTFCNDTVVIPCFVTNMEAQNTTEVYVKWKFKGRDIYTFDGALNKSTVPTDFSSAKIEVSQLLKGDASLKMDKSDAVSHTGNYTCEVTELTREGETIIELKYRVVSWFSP", "assay": "SPR (Proteon GLC chip), CD47 immobilised by amine coupling, construct injected as analyte in the first injection (100 nM per paragraph 377)"}, "[1]": {"molecular_target": "T2, EGFR-ECD (epidermal growth factor receptor extracellular domain produced in HEK293 cells) (UniProt P00533 25-645, limits assumed)", "T2 construct": "extracellular domain", "assay": "SPR (Proteon GLC chip), EGFR-ECD injected in the second injection over construct B bound to immobilised CD47"}, "[2]": {"molecular_target": "T2, EGFR-ECD (epidermal growth factor …)", "assay": "SPR (Proteon GLC chip), EGFR-ECD injected in the second injection over construct C bound to immobilised CD47"}}, "note": "Residue numbers refer to the chain shown, from its start."}
{"binder": "B1", "values": [{"measurement": "binding result", "setting": "human CD47", "result": "binds"}, {"measurement": "binding result", "setting": "[1]", "result": "no binding"}]}
{"binder": "B2", "values": [{"measurement": "binding result", "setting": "human CD47", "result": "binds"}, {"measurement": "binding result", "setting": "[2]", "result": "no binding"}]}
